From patent US20050255113A1, “Methods and compositions for inhibiting polypeptide accumulation associated with neurological disorders” (New York State Department of Health and Abgenix, Inc., priority 1999, published 2005)

Assays:
GST-DRPLA-35Q = target: T1, GST-DRPLA-35Q (Homo sapiens, UniProt P54259, DUP487-502); assay: Affinity purification of sFv with GST-fusion antigens (glutathione-Sepharose, SDS-PAGE, immunoblot); assay type: binding; conditions: 3 μg sFv with 4 μg antigen, 1 hr room temperature
T1 construct: made in house; host or cells: E. coli BL21
Procedure: (§1) About 3 ug of N-HD-C4 sFv was mixed with 4 ug of either GST-DRPLA-Q35 or GST-HD-Q25 or GST-HD-Q42 in PBS (200 μl final volume) and rocked for 1 h at RT. Twenty microliters of glutathione Sepharose 4B beads (50% slurry, pre-washed with PBS) was added and incubated for another 30 min at RT to capture the sFv/GST fusion protein complexes. The beads were harvested by centrifugation at 12,000×g for 10 sec and washed thrice with 1 ml PBS. The complexes were eluted with 10 μl of 50 mM Tris pH 8.0 containing 10 mM reduced glutathione for 10 min at RT. Tubes were then centrifuged at 12,000×g for 1 min and the supernatants containing the soluble complexes were transferred to new tubes, mixed with an equal volume of 2× SDS-sample buffer and heated at 95° C. before being loaded on SDS-PAGE.
(§2) About 3 μg of each clone were incubated in solution for 1 hour at room temperature with 4 ug of either GST-DRPLA-Q35, GST-HD-Q25 or GST-HD-Q42. Then, a 10 μl bed volume of glutathione-Sepharose 4B (Pharmacia) was added to each tube to precipitate the GST-fusion protein/sFv complexes. After 30 min incubation, tubes were centrifuged and the pellets washed 3 times with 1 ml PBS. The complexes were eluted from glutathione-Sepharose beads by addition of 10 mM reduced glutathione to the pellets.
(§3) After centrifugation, supernatants containing the eluted complexes were transferred to new tubes and mixed with an equal volume of 2× SDS-loading buffer. The samples were boiled and the proteins separated on a 12% SDS-PAGE. Protein bands were visualized by Coomassie blue staining, and/or transferred to nitrocellulose membranes in order to detect the sFv molecules by immunoblot.
(§4) The binding specificities of the selected sFv clones were tested by affinity binding to a full range of antigens, as follows: (a) using sample numbers that correspond to the experimental results in FIGS. 9 and 10, about 3 μg of α-Nt-HD-C4 sFv clone 1 (lanes 2-4) or α-Nt-HD-C4 sFv clone 2 (lanes 5-7) were mixed with 4 μg of the following antigens and incubated in solution for 1 hr at room temperature (lanes 2 and 5) GST-DRPLA-35Q, (lanes 3 and 6) GST-HD-25Q, (4 and 7) GST-HD-42Q; (b) a 10 μl bed volume of glutathione-Sepharose 4B (Pharmacia) was added to each tube to bind all GST-containing protein complexes; the beads were washed with 10 mM glutathione solution, which eluted the GST-antigen or the sFv-antigen complex, and these eluates were analyzed by SDS-PAGE. Protein bands were visualized by Coomassie blue staining (FIG. 9) and were also transferred to nitrocellulose membranes in order to detect the sFv molecules by immunoblot blot (FIG. 10).

GST-HD-25Q, GST-HD-42Q = assay: as above; assay type: binding; conditions: 3 μg sFv with 4 μg antigen, 1 hr room temperature; Coomassie and immunoblot
Procedure: as §1, §2, §3, §4

T1 sequence (P54259 with tags, fused parts or gaps DUP487-502): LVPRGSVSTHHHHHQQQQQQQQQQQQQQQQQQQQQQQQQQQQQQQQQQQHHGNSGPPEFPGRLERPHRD
Sequence of GST-HD-25Q, GST-HD-42Q (as listed by the source): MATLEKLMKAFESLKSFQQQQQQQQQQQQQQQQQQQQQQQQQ

B1: C4 sFv: human single-chain Fv intrabody from phage display, specific for the 17 N-terminal residues of huntingtin; SEQ ID NO: 6 (protein)
scFv: QVQLQESGGGLVQPGGSLRLSCAASGFTFSSYSMSWVRQAPGKGLEWVAVISYDGSNKYYADSVKGRFTISRDNSKNTLYLQMNSLRAEDTAVYYCARDRYFDLWGRGTLVTVSSGGGGSGGGGSGGGGSQSALTQPASVSGSPGQSITISCTGTSSDIGAYNYVSWYQQYPGKAPKLLIYDVSNRPSGISNRFSGSKSGDTASLTISGLQAEDEADYYCSSFANSGPLFGGGTKVTVL
sFv co-purified with GST-DRPLA-Q35 (GST-DRPLA-35Q): not detected | sFv co-purified with antigens containing the Nt-HD sequence (GST-HD-25Q, GST-HD-42Q): present at about the same intensity as the other proteins
